The values below are quoted from earlier work in PMC3408481.

By Kd is commonly meant the equilibrium constant for the complex coming apart.

The target of data set [1] is PACAP (Homo sapiens) (UniProt P18509).
Data set [2] has as its target VIP (Homo sapiens) (UniProt P01282).
Sequence of UniProt P01282 (P01282 125-152): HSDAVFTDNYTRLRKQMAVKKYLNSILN

Sequence of UniProt P18509 (P18509 82-129): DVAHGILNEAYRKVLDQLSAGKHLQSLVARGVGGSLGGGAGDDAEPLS

With PAC1 receptor (from UniProt P41586), the Kd in data set [1] was 0.5 nM; in data set [2], 500 nM.
